{
  "source": "paper PMC7521651",
  "about": "“Intracerebroventricular enzyme replacement therapy with β-galactosidase reverses brain pathologies due to GM1 gangliosidosis in mice” (The Journal of Biological Chemistry, 2019)",
  "proteins": {"B1": {"name": "recombinant human β-gal (rhβ-gal) (enzyme)", "chain": "QRMFEIDYSRDSFLKDGQPFRYISGSIHYSRVPRFYWKDRLLKMKMAGLNAIQTYVPWNFHEPWPGQYQFSEDHDVEYFLRLAHELGLLVILRPGPYICAEWEMGGLPAWLLEKESILLRSSDPDYLAAVDKWLGVLLPKMKPLLYQNGGPVITVQVENEYGSYFACDFDYLRFLQKRFRHHLGDDVVLFTTDGAHKTFLKCGALQGLYTTVDFGTGSNITDAFLSQRKCEPKGPLINSEFYTGWLDHWGQPHSTIKTEAVASSLYDILARGASVNLYMFIGGTNFAYWNGANSPYAAQPTSYDYDAPLSEAGDLTEKYFALRNIIQKFEKVPEGPIPPSTPKFAYGKVTLEKLKTVGAALDILCPSGPIKSLYPLTFIQVKQHYGFVLYRTTLPQDCSNPAPLSSPLNGVHDRAYVAVDGIPQGVLERNNVITLNITGKAGATLDLLVENMGRVNYGAYINDFKGLVSNLTLSSNILTDWTIFPLDTEDAVRSHLGGWGHRDSGHHDEAWAHNSSNYTLPAFYMGNFSIPSGIPDLPQDTFIQFPGWTKGQVWINGFNLGRYWPARGPQLTLFVPQHILMTSAPNTITVLELEWAPCSSDDPELCAVTFVDRPVIGSSVTYDHPSKPVEKRLMPPPPQKNKDSWLDHV", "modifications": "N-linked glycans; about 9% of the total glycan composition is bisphosphorylated oligomannose (BPM7)", "notes": "human lysosomal β-galactosidase (GLB1), secreted from CHO cells as the precursor, nonlysosomal enzyme (not the lysosomally processed mature form); No tag is mentioned; PDB 3THC is another preparation, treated by limited proteolysis, with residues 648-677 not determined; also called β-galactosidase; lysosomal β-gal"}},
  "key": {"[1]": {"molecular_target": "the molecule itself", "assay": "AUC; sedimentation equilibrium, 12,000 and 14,000 rpm, 20 mM sodium acetate pH 5, 150 mM NaCl, 3 mM KCl; dimer to monomers, limit calculated from detection of 10% monomer"}, "[2]": {"molecular_target": "the molecule itself", "assay": "AUC; sedimentation equilibrium, 12,000 and 14,000 rpm, 25 °C, 20 mM sodium phosphate pH 7.4, 150 mM NaCl, 3 mM KCl; monomer-dimer equilibrium model (SEDPHAT); dimer to monomers"}},
  "data": [
    {"protein": "B1", "values": [
      {"measurement": "Kd", "setting": "[1]", "value": "≤ 2", "unit": "nM"},
      {"measurement": "stoichiometry N", "setting": "[1]", "value": 2},
      {"measurement": "Kd", "setting": "[2]", "value": 243, "unit": "nM"}
    ]}
  ]
}
